Test results taken from article PMC2757162 (Journal of molecular biology, 2008).

Target: the molecule itself

B1: Herpes simplex virus type 1 SSB/recombination protein ICP8 (natural protein)
chain: METKPKTATTIKVPPGPLGYVYARACPSEGIELLALLSARSGDSDVAVAPLVVGLTVESGFEANVAVVVGSRTTGLGGTAVSLKLTPSHYSSSVYVFHGGRHLDPSTQAPNLTRLCERARRHFGFSDYTPRPGDLKHETTGEALCERLGLDPDRALLYLVVTEGFKEAVCINNTFLHLGGSDKVTIGGAEVHRIPVYPLQLFMPDFSRVIAEPFNANHRSIGEKFTYPLPFFNRPLNRLLFEAVVGPAAVALRCRNVDAVARAAAHLAFDENHEGAALPADITFTAFEASQGKTPRGGRDGGGKGAAGGFEQRLASVMAGDAALALESIVSMAVFDEPPTDISAWPLFEGQDTAAARANAVGAYLARAAGLVGAMVFSTNSALHLTEVDDAGPADPKDHSKPSFYRFFLVPGTHVAANPQVDREGHVVPGFEGRPTAPLVGGTQEFAGEHLAMLCGFSPALLAKMLFYLERCDGAVIVGRQEMDVFRYVADSNQTDVPCNLCTFDTRHACVHTTLMRLRARHPKFASAARGAIGVFGTMNSMYSDCDVLGNYAAFSALKRADGSETARTIMQETYRAATERVMAELETLQYVDQAVPTAMGRLETIITNREALHTVVNNVRQVVDREVEQLMRNLVEGRNFKFRDGLGEANHAMSLTLDPYACGPCPLLQLLGRRSNLAVYQDLALSQCHGVFAGQSVEGRNFRNQFQPVLRRRVMDMFNNGFLSAKTLTVALSEGAAICAPSLTAGQTAPAESSFEGDVARVTLGFPKELRVKSRVLFAGASANASEAAKARVASLQSAYQKPDKRVDILLGPLGFLLKQFHAAIFPNGKPPGSNQPNPQWFWTALQRNQLPARLLSREDIETIAFIKKFSLDYGAINFINLAPNNVSELAMYYMANQILRYCDHSTYFINTLTAIIAGSRRPPSVQAAAAWSAQGGAGLEAGARALMDAVDAHPGAWTSMFASCNLLRPVMAARPMVVLGLSISKYYGMAGNDRVFQAGNWASLMGGKNACPLLIFDRTRKFVLACPRAGFVCAASSLGGGAHESSLCEQLRGIISEGGAAVASSVFVATVKSLGPRTQQLQIEDWLALLEDEYLSEEMMELTARALERGNGEWSTDAALEVAHEAEALVSQLGNAGEVFNFGDFGCEDDNATPFGGPGAPGPAFAGRKRAFHGDDPFGEGPPDKKGDLTLDML
binding result: binds
